Values joined by “and” are separate entries in the source; they are usually repeats but may differ in a detail not shown here. Identical values can stand only once.
What was measured:
simian CD3 = biological target: T1, simian CD3 (Macaca fascicularis, UniProt Q95LI5); test: Flow cytometric binding assay, cynomolgus monkey PBMCs; details: 10 μg/mL
T1 construct: endogenous in cells; host or cells: cynomolgus monkey PBMCs (T cells)
Description: (§1) Cells were first gated for singlets followed by gating for viable lymphocytes (PBMCs) or viable HEK-293T-17 cells. […] Cynomolgus monkey or human PBMCs and HEK-293T-17 transductants stably expressing luciferase (HEK-293T-17_mock), CLDN3, 4, 6 or 9 served as target cells as indicated. The dotted vertical line marks the peak position of unstained populations.

CLDN9 = biological target: T2, CLDN9 (Homo sapiens, UniProt O95484); test: Flow cytometric binding assay, HEK-293T-17 CLDN9 transductants; set-up: expressed in transfected cells; details: 10 μg/mL RiboMab02.1 in HEK-293T-17 supernatant
T2 sequence (O95484 1-217): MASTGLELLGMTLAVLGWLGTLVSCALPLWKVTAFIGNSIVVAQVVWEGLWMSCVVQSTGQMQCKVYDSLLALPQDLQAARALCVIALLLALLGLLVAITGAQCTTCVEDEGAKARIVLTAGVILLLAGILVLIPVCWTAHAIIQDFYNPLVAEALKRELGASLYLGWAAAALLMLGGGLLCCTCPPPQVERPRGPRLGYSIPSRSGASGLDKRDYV
Description: as §1

human CD3 = biological target: T3, human CD3 (Homo sapiens, UniProt P07766); test: Flow cytometric binding assay, human PBMCs; details: 10 μg/mL
T3 construct: endogenous in cells; host or cells: human PBMCs (T cells)
Description: as §1

[1] = cynomolgus monkey, in vivo
[2] = Single-dose PK study of BNT142 in cynomolgus monkeys
MDA-MB-231 cell line = test: T-cell-mediated cytotoxicity assay (bioluminescence), MDA-MB-231; type: cell-based, human; details: CLDN6-negative MDA-MB-231; RiboMab02.1-containing mouse serum
Method: Human PBMCs from eight healthy donors were co-cultured with luciferase-expressing tumor cells. CLDN6-positive PA-1 (A) or OV-90 (B) cell lines were used as target cells and the CLDN6-negative MDA-MB-231 (A, B) cell line to control for target specificity. The assays were performed in a 384-well plate format with an effector-to-target-cell ratio of 20:1. Bioluminescence of viable tumor cells was measured as readout. Specific lysis percentages of tumor cell killing are presented. RiboMab02.1-containing mouse serum was serially-diluted (10-fold, 10-point; range: 5.0×10^−7 to 500 ng/mL) and added to the co-cultures, followed by incubation for (A) 24 h with PA-1 cells or (B) 48 h with OV-90 cells. Each line represents tumor cell lysis with an individual donor's PBMC sample.
Bioluminescence-based cytotoxicity assays were conducted using luciferase-expressing cell lines.
The CLDN6-positive human ovarian cancer cell lines PA-1 and OV-90 served to determine target-dependent lysis efficiency while the target-negative human breast cancer cell line MDA-MB-231 was used as negative control to confirm target-specific lysis. Human PBMCs from eight different healthy donors were used as effector cells to reflect the donor-dependent heterogeneity of human T-cell responses. […]

human PBMCs (T cells) = test: T-cell activation assay (CD69/CD25, flow cytometry); type: cell-based
Method: Human PBMCs from three healthy donors (effector cells) were cultured in the presence and absence of CLDN6-positive PA-1 cells (target cells) at a 10:1 effector-to-target-cell ratio. RiboMab02.1-containing mouse serum was serially-diluted (10-fold, 10-point; range: 4.0×10^−6 to 4,000 ng/mL) prior to use in the assay. After 48 h of co-incubation, cells were stained with anti-CD5, anti-CD69 and anti-CD25 antibodies for flow cytometric analysis of T cells. Shown here is the total T-cell activation normalized to samples incubated with mock serum from Luc_RNA-LNP-treated mice. Percentages of activated T cells are shown for each individual donor (left) and for all three donors as mean (right). Filled symbols represent values with and black, open symbols without target cells.
RiboMab02.1-containing as well as mock serum samples were obtained from mice administered either with BNT142 or luciferase encoding RNA-LNP (Luc_RNA-LNP; mock). Human PBMCs from three healthy donors were used as effector cells. Serum samples were serially-diluted (10-fold, 10-point), starting at 4,000 ng/mL, and added to PBMCs cultured alone or together with CLDN6-positive PA-1 target cells at an effector-to-target-cell ratio of 10:1. After 48 h of incubation, T cells were analyzed by flow cytometry for surface expression of the early and late activation markers CD69 and CD25, respectively. […] OKT3 positive control led to >50% T-cell activation with and without target cells (data not shown). Upregulation of CD69 on T cells was higher than that of CD25; CD25-positive cells were almost exclusively CD69 double-positive, pointing to an early activation state (data not shown).

[3] = 0.050 mg/kg, individual animals

T1 sequence (Q95LI5 22-198): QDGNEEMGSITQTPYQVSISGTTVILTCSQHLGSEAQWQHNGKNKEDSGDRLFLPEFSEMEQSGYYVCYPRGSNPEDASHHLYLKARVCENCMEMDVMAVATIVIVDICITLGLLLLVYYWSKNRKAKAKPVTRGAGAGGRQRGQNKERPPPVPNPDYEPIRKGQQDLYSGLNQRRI
T1 sequence (Q95LI8 22-171 partner): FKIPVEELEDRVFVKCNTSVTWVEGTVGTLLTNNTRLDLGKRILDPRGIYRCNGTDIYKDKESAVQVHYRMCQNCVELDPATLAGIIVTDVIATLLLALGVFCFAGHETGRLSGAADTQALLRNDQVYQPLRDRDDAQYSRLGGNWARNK
T1 sequence (Q95LI7 23-181 partner): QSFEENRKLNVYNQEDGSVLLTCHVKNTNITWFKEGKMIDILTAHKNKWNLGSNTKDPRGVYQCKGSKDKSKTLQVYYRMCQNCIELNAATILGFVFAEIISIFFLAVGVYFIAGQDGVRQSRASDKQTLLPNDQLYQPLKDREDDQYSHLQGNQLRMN
T3 sequence (P07766 23-207): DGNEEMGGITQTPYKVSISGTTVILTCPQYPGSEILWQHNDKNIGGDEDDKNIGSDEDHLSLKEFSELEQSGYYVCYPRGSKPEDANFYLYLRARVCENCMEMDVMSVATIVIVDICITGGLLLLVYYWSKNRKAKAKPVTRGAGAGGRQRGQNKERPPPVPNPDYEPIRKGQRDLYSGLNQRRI
T3 sequence (P04234 22-171 partner): as the sequence (Q95LI8 22-171 partner) above, with V5I, K15N, V20I, T32S, N33D, N34I, A64T, N74S, L83V, R141H counted along it
T3 sequence (P09693 23-182 partner): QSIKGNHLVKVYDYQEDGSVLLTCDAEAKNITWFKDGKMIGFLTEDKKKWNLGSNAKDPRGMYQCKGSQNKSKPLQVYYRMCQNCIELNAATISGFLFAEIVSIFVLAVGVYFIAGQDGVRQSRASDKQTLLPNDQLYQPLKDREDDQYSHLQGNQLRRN
T3 sequence (P20963 22-164 partner): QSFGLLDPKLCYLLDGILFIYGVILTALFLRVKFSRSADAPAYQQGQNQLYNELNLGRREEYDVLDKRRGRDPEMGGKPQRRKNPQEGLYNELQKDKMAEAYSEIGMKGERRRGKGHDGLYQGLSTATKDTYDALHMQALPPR

In the case of “RiboMab02.1: Fab-(scFv)2-based bispecific antibody (tribody) against CLDN6 and CD3 encoded by BNT142; SEQ ID NOs: 4 and 6; C53S”, the “binding to simian CD3” value (simian CD3) is reported as “not simian CD3 was recognized”, the “binding to CLDN9” value (CLDN9) is reported as “not to CLDN3, CLDN4 or CLDN9” and the “binding to human CD3” value (human CD3) is reported as “recognized”. For the same substance, the “anticipated full clearance from the human body (five half-lives)” value [1] was 135 to 185 h, the “Effective t1/2 (mean)” value ([2]; 0.050 mg/kg, group, n=2) was 28.1 h and the “Cmax (mean)” value ([2]; 0.050 mg/kg, group, n=3) was 27.5 ng/mL. For the same substance, the “Ctrough (mean)” value ([2]; 0.050 mg/kg, group, n=3) was 3.6 ng/mL, the “tlast (median)” value ([2]; 0.050 mg/kg, group, n=3) was 72 h and the Cmax [2, 3] was 32.8 ng/mL and 19.1 ng/mL and 30.7 ng/mL. The Ctrough [2, 3] was 0.6 ng/mL and 5.6 ng/mL, the tlast [2, 3] was 168 h and 72 h (2×) and the “Effective t1/2” value ([2]; 0.050 mg/kg, individual animals, from MRT0-inf) was 28.1 h. The “Effective t1/2 (mean)” value ([2]; […], group, n=1) was 26.5 h, the “Effective t1/2 (mean)” value ([2]; […], group, n=3) was 36.6 h and the “Effective t1/2” value ([2]; […], individual animals, calculated from MRT0-inf) was 26.5 h. For the same substance, the “inter-individual difference in concentration at Cmax” value ([2]; highest dose group) was 2 fold, the target-independent lysis (MDA-MB-231 cell line) was “did not induce target-independent (non-specific) lysis” and the “off-target T-cell activation” value (human PBMCs (T cells); PBMCs without target cells, up to 40 ng/mL RiboMab02.1, 48 h) was “No off-target T-cell activation”. The “concentration above EC50 up to which T-cell activation is target-dependent” value (human PBMCs (T cells); onset of unspecific T-cell activation relative to EC50) was > 1,500 fold.

Reference: patent publication US20250009780A1, “AGENTS ENCODING CLDN6 AND CD3 BINDING ELEMENTS FOR TREATING CLDN6-POSITIVE CANCERS” (BIONTECH SE, priority 2021, published 2025)
